# Measured values published in patent US20210371863, “HIGH EFFICIENCY APTAMER COMPLEX COMPRISING BRANCHED DNA AND APTAMER, AND USE THEREOF” (POSTECH ACADEMY-INDUSTRY FOUNDATION, published 2021).
# B1: OA (oligomeric hVEGF aptamer, Y_Vapt) (ssDNA)
# DNA: AGCTTCAGGCGAGGAGCCCACCCCGTCTTCCAGACAAGAGTGCAGGGGTGGCGAGGAGCGGACA
# Target: VEGF (hVEGF) (Homo sapiens, UniProt P15692-4 P15692-4:27-191)
# Assay: ELISA; remarkable capture efficiency after 4 h at room temperature, PD-10 column filtration; but p70 (FIG. 9) reports OA captured little hVEGF independent of serum incubation time
# Settings: quantified with hVEGF ELISA kit (Komabiotech); chain copies: 2; hairpin
# Procedure: To confirm the hVEGF capture ability of OA, AA, and CA, each prepared sample was mixed with hVEGF solution for 4 hours at room temperature, and the mixed solution was filtered through a PD-10 column (Sephadex G-25, GE Healthcare, Sweden). The amount of non-purified hVEGF was measured by the hVEGF enzyme-linked immunosorbent assay kit (ELISA kit, Komabiotech) according to the manufacturer's guidelines (absorbance measurement at 490 nm by VICTOR3 V™ (Multilabel Counter, Perkin Elmer, Wellesley, Mass., USA)). The hVEGF capture ability of other samples such as OSc, ASc, and CSc was measured in the same way, and the results are shown in FIG. 10.
# Chain of VEGF (hVEGF) (P15692 other isoform, or with tags, fused parts or gaps): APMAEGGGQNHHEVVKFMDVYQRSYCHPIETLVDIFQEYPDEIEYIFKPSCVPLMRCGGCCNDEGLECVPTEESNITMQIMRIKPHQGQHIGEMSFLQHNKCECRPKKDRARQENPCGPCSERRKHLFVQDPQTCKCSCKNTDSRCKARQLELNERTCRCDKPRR
binder,measurement,value
B1,binding result,binds
